Data: patent publication US20230404098A1

Molecular target: Bovine kappa casein purified from cow's milk (Sigma Aldrich) (bovine (cow)) (UniProt P02668)
Assay: cell-based or functional assay

Chain of UniProt P02668 (P02668 22-190): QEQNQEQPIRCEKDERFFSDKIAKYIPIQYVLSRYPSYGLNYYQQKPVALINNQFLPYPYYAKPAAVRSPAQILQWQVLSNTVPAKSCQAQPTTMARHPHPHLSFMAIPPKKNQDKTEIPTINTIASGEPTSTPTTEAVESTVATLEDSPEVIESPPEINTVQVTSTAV

- Average A450 (turbidity of the micellar colloid): 0.13 A450
Substance: Recombinantly-produced N-terminally 6xhistidine-tagged bovine (cow) alpha-s1-casein (lacking PTMs)
